The target of one series is EPHB2 (UniProt P29323). Description: phosphorylation enrichment, bacterial display (enrichment ratio); higher = better substrate or ligand; peptides without Tyr show the background.
For a further series, the target named is MERTK (UniProt Q12866). Described as above.
The target of the next series is Fes (UniProt P07332). The series is described as above.
A further series relates to AncSZ. Described as above.
Another series deals with Jak2 (UniProt O60674). The description is as above.
Chain of Jak2 (O60674 whole entry, looked up): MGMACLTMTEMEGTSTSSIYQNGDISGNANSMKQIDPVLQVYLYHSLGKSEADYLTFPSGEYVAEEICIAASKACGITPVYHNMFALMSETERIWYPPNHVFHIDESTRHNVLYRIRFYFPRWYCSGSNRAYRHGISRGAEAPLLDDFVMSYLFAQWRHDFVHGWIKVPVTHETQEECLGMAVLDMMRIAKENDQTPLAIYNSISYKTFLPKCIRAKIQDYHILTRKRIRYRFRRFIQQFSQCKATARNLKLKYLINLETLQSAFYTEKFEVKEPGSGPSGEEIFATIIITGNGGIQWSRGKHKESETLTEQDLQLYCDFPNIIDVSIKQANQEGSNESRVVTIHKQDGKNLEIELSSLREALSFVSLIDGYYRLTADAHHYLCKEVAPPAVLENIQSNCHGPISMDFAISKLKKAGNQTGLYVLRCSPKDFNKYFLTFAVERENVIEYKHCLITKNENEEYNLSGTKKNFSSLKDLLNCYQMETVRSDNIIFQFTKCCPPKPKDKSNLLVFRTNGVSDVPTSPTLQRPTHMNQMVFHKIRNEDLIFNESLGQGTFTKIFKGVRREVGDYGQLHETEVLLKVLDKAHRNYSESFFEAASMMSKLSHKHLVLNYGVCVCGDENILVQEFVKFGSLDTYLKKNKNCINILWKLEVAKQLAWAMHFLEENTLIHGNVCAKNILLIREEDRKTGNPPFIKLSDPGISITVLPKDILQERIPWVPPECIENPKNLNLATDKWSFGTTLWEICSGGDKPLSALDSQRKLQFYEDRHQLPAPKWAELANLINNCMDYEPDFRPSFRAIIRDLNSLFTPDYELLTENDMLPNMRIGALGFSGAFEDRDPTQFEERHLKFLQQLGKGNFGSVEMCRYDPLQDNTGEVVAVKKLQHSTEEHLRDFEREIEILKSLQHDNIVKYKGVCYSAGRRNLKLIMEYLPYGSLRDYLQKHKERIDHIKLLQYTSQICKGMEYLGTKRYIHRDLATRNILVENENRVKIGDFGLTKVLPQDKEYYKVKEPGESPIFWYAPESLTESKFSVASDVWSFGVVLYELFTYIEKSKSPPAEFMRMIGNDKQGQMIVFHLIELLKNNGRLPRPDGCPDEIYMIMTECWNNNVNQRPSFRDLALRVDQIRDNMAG
Another series addresses FGFR1 (UniProt P11362). The description is as above.
The next series deals with Hck (UniProt P08631). The series is described as above.
Chain of Hck (P08631 whole entry, looked up): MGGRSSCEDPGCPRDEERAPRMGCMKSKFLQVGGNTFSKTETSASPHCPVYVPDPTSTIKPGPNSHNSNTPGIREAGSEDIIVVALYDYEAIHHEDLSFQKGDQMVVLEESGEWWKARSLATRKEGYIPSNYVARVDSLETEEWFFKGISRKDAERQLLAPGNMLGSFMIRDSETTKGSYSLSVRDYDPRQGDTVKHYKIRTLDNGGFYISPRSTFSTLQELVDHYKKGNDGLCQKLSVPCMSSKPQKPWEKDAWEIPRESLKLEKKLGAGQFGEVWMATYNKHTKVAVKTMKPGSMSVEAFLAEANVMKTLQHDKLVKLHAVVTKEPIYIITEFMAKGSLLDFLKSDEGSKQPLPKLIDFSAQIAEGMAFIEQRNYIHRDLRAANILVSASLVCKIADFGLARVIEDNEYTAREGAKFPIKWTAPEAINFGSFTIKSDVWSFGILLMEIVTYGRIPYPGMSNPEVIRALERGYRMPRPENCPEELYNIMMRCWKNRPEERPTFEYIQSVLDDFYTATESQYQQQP
The next series has as its target EPHB1 (UniProt P54762). Described as above.
The target in another series is FGFR3 (UniProt P22607). Described as above.
In another series the test system is c-Abl (mouse). The series is described as above.
A further series relates to c-Src. Described as above.
A further series addresses Fyn (UniProt P06241). The description is as above.
The subject of a further series is Fer (mouse). The series is described as above.
Another series concerns the target SHP2-C SH2. Put plainly: SH2 binding enrichment of the phosphorylated peptide, bacterial display (enrichment ratio); higher = better substrate or ligand; peptides without Tyr show the background.
In the next series the target is Grb2 SH2 (UniProt P62993). The description is as above.
The next series addresses c-Src SH2. The description is as above.
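Throughout, for SH2 binding enrichment of the phosphorylated peptide, bacterial display: peptide library displayed on the E. coli surface as eCPX fusions, selected cells deep-sequenced, score is each peptide's frequency after selection divided by its frequency in the input.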
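Throughout, for phosphorylation enrichment, bacterial display: 11-residue human phosphosite peptides and single-mutation variants displayed on the E. coli surface, counted by deep sequencing, each peptide's frequency after selection divided by its frequency in the unselected input library; frequency after pTyr selection over input frequency; kinase dosed for 20-30% of maximal phosphorylation in three min.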

Chain of FGFR1 (P11362 whole entry, looked up): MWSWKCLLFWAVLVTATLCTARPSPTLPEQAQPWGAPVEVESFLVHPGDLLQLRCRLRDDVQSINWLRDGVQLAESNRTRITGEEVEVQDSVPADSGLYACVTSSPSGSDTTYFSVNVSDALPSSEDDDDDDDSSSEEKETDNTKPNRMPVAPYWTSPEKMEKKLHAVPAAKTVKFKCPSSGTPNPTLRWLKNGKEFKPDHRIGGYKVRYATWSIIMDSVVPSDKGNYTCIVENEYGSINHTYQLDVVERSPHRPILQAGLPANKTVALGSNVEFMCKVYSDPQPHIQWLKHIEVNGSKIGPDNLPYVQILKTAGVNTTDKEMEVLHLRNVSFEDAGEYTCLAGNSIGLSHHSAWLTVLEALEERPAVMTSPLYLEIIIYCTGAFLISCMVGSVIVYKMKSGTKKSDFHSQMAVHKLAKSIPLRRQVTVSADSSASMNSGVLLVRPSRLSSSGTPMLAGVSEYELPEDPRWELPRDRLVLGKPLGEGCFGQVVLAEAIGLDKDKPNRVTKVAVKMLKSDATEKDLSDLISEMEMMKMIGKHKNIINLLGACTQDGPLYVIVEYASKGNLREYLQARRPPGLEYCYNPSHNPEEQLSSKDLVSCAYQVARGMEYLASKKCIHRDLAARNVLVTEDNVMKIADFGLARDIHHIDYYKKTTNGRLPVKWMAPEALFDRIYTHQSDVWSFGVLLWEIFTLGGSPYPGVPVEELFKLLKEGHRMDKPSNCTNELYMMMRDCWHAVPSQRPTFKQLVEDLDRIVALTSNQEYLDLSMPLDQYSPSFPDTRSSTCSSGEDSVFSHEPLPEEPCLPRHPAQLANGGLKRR
Chain of Fyn (P06241 whole entry, looked up): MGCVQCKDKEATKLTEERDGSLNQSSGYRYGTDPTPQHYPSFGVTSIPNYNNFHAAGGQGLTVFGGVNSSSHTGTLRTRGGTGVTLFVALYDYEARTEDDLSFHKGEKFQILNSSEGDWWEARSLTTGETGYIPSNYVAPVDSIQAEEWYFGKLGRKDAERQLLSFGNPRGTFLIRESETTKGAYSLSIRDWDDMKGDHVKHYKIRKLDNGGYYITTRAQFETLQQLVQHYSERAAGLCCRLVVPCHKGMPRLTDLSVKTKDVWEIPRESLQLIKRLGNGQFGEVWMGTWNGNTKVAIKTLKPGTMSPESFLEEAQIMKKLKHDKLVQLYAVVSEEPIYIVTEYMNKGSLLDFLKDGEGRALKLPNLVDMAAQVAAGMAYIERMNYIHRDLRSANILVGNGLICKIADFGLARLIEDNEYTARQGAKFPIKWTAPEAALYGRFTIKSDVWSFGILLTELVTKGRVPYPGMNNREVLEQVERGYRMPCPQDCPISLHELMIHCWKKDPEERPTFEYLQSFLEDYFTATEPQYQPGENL
Chain of EPHB1 (P54762 whole entry, looked up): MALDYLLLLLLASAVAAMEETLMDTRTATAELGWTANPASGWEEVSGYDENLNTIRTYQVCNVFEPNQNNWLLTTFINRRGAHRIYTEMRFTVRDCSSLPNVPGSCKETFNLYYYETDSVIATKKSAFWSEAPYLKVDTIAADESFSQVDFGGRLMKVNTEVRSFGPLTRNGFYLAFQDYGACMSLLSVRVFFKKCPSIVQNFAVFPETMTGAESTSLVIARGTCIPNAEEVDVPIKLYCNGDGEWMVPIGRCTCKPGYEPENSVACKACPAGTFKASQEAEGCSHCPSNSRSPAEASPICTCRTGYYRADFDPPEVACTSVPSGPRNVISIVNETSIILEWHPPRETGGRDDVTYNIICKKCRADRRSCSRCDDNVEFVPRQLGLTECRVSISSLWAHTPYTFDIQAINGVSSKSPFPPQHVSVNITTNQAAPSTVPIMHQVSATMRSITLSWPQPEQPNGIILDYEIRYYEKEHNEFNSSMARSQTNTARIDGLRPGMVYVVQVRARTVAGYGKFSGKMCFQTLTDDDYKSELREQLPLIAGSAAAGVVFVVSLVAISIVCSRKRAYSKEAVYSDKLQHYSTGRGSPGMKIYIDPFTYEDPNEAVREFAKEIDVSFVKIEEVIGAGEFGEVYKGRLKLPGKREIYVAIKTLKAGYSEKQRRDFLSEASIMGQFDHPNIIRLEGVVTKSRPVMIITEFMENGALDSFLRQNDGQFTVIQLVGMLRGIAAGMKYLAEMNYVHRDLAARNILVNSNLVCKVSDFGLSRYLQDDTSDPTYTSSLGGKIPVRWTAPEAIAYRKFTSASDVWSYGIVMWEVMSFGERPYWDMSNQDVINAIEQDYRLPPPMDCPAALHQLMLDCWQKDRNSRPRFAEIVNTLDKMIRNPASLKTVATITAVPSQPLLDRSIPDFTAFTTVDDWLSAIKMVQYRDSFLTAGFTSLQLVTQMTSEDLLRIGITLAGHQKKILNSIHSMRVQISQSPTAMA
Chain of MERTK (Q12866 whole entry, looked up): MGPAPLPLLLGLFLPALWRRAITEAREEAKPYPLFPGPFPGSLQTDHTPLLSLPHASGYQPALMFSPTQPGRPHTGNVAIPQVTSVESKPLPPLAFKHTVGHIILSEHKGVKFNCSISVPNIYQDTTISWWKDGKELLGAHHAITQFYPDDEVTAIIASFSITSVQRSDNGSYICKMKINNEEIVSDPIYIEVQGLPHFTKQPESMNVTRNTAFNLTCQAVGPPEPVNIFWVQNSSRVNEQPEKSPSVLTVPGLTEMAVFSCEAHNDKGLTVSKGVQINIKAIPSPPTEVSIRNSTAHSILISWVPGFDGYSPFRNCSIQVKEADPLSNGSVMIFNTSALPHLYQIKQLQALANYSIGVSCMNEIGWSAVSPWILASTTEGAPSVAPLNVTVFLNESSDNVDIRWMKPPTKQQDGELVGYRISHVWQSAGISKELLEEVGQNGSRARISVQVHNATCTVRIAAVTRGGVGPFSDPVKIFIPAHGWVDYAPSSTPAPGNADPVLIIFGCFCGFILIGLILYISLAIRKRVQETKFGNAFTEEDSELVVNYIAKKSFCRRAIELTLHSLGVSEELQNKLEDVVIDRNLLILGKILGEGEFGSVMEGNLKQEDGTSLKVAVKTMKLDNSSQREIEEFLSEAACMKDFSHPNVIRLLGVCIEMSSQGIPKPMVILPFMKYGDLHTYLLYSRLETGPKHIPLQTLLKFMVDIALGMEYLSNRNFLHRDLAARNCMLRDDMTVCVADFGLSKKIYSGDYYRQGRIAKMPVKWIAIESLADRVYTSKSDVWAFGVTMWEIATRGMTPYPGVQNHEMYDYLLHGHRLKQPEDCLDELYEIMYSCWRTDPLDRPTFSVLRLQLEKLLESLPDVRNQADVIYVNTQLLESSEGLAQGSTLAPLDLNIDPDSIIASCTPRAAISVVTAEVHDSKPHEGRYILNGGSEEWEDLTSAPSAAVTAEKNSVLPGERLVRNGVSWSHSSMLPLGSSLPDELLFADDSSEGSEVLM

In the case of IVFVIYDEVVK [SLC25A1_Y297], the phosphorylation enrichment with EPHB2 amounted to 2.01; with MERTK, 0.576; with Fes, 1.19; in the series with AncSZ, 1.16; with Jak2, 1.26; with FGFR1, 0.53. Also, the phosphorylation enrichment was found to be 1.44 in the series with Hck; 1.9 in the series with EPHB1; 0.863 with FGFR3; 0.888 in the series on c-Abl (mouse); 0.855 with c-Src; 1.03 with Fyn. Besides, the phosphorylation enrichment in the series on Fer (mouse) was found to be 0.708. Besides, the SH2 binding enrichment came to 1.61 with SHP2-C SH2, 1.5 in the series with Grb2 SH2 and 1.27 with c-Src SH2.
On to IYLADCRIMEG [ALOX12B_Y318_Y318C], for which the phosphorylation enrichment came out at 0.932 with EPHB2; 0.556 with MERTK; 1.36 with Fes; 1.27 in the series with AncSZ; 0.95 in the series with Jak2; 0.648 in the series with FGFR1. For the same sequence, the phosphorylation enrichment with Hck was determined as 0.691; with EPHB1, 0.693; in the series with FGFR3 it was 0.842; in the series with c-Abl (mouse), 0.869; with c-Src, 0.559; with Fyn, 0.684. The phosphorylation enrichment with Fer (mouse) was found to be 0.65. In addition, the SH2 binding enrichment in the series with SHP2-C SH2 was determined as 0.671; with Grb2 SH2 it was 0.821; in the series with c-Src SH2, 0.45.
For the sequence IYRASYYRKGG [ALK_Y1282], the phosphorylation enrichment with EPHB2 came to 0.481; in the series with MERTK it was 0.621; with Fes, 0.622; in the series with AncSZ, 0.615; in the series with Jak2 it was 0.753; with FGFR1, 0.414. Further, the phosphorylation enrichment with Hck is 0.476; in the series with EPHB1, 0.419; with FGFR3 it was 0.403; in the series with c-Abl (mouse) it was 0.676; in the series with c-Src, 0.557; in the series with Fyn, 0.513. Besides, the phosphorylation enrichment in the series on Fer (mouse) was determined as 0.45. Besides, the values for the SH2 binding enrichment in the series with SHP2-C SH2, with Grb2 SH2 and with c-Src SH2 were 0.702, 0.825 and 0.528, respectively.
In the case of IYSGIYYKPES [L2HGDH_Y102_H98Y], the phosphorylation enrichment came out at 15.9 with EPHB2; 11.5 with MERTK; 9.02 in the series with Fes; 3.08 in the series with AncSZ; 7.32 with Jak2; 8.71 with FGFR1. The phosphorylation enrichment with Hck is 9.78; with EPHB1, 14.1; with FGFR3, 7.9; with c-Abl (mouse), 23.7; in the series with c-Src, 7.25; with Fyn it was 10.2. Moreover, the phosphorylation enrichment in the series on Fer (mouse) turned out to be 15.8. For the same sequence, the SH2 binding enrichment stood at 1.22 in the series with SHP2-C SH2, 1.01 with Grb2 SH2 and 1.28 with c-Src SH2.
Take KAPPTYDNVLQ [CYP3A4_Y347_T349N]: the phosphorylation enrichment in the series with EPHB2 was 3.6; with MERTK, 1.22; with Fes it was 0.714; with AncSZ, 0.606; in the series with Jak2, 0.514; in the series with FGFR1 it was 0.452. The phosphorylation enrichment was 1.68 in the series with Hck; 6.04 with EPHB1; 0.482 with FGFR3; 0.511 with c-Abl (mouse); 0.785 in the series on c-Src; 0.978 with Fyn. The phosphorylation enrichment with Fer (mouse) is 1.85. The SH2 binding enrichment with SHP2-C SH2 was 0.674; in the series with Grb2 SH2, 4.72; in the series with c-Src SH2, 3.58.
For KAWGIYDCQQP [CYP3A7_Y75_V71A], the phosphorylation enrichment in the series with EPHB2 turned out to be 4.21; in the series with MERTK, 5.53; in the series with Fes it was 1.56; in the series on AncSZ, 1.73; with Jak2, 1.12; in the series with FGFR1 it was 0.53. Moreover, the phosphorylation enrichment in the series with Hck was found to be 6.67; with EPHB1, 8.32; with FGFR3, 0.852; with c-Abl (mouse), 1.12; in the series on c-Src it was 4.8; in the series with Fyn, 7.28. Also, in the series with Fer (mouse), the phosphorylation enrichment was 3.52. Further, the figures for the SH2 binding enrichment with SHP2-C SH2, in the series with Grb2 SH2 and with c-Src SH2 were 0.489, 0.969 and 0.602, respectively.
In the case of KAWTIYHPEDS [ZBP1_Y165_R166H], the phosphorylation enrichment amounted to 0.547 with EPHB2; 0.474 in the series with MERTK; 1.02 with Fes; 0.949 with AncSZ; 0.871 with Jak2; 0.432 with FGFR1. Also, the phosphorylation enrichment in the series with Hck was determined as 0.569; with EPHB1 it was 0.559; in the series with FGFR3, 0.787; in the series with c-Abl (mouse), 0.723; with c-Src, 0.833; with Fyn it was 0.646. The phosphorylation enrichment with Fer (mouse) turned out to be 0.482. Also, the SH2 binding enrichment was 0.875 with SHP2-C SH2, 0.897 in the series with Grb2 SH2 and 0.518 with c-Src SH2.
Take KEELDYLKKNH [KRT14_Y248_A247D]: the phosphorylation enrichment in the series with EPHB2 is 0.624; in the series with MERTK it was 0.419; with Fes it was 1.1; with AncSZ, 1.04; with Jak2, 0.879; with FGFR1 it was 0.447. Besides, the phosphorylation enrichment with Hck amounted to 0.382; with EPHB1, 0.554; in the series with FGFR3, 0.666; in the series on c-Abl (mouse), 0.854; with c-Src, 0.467; with Fyn, 0.355. Besides, in the series on Fer (mouse), the phosphorylation enrichment was found to be 0.45. For the same sequence, the values for the SH2 binding enrichment with SHP2-C SH2, in the series with Grb2 SH2 and in the series with c-Src SH2 were 0.682, 0.742 and 0.425, respectively.

The record behind these values is the supplement of paper PMC10065799, “High-throughput profiling of sequence recognition by tyrosine kinases and SH2 domains using bacterial peptide display” (eLife, 2023).
